Literature values, collected in article PMC7343451.

Target: SARS-CoV-2 spike RBD (Severe acute respiratory syndrome coronavirus 2) (UniProt P0DTC2)

Substance: hACE2 peptide 21-43 (from UniProt Q9BYF1)
- Kd: 47 nM
